This note sets out measurements from paper PMC6412121.

The target of this series is TF-TDP-43-FL (UniProt Q13148). Nature of the series: EMSA. Conditions: biotin-UTP incorporated in transcription; EMSA: 40 mM Tris-HCl pH 7.4, 30 mM KCl, 1 mM MgCl2, 0.01% IGEPAL CA-630, 1 mM DTT, 10 ug yeast tRNA, 10 ug BSA, 10 ng RNA, 200 ng protein in 10 ul, 25 C, 20 min. (A gel shift assay detects complexes by their altered migration in electrophoresis.)
TF-TDP-43-FL, sequence (Q13148 whole entry): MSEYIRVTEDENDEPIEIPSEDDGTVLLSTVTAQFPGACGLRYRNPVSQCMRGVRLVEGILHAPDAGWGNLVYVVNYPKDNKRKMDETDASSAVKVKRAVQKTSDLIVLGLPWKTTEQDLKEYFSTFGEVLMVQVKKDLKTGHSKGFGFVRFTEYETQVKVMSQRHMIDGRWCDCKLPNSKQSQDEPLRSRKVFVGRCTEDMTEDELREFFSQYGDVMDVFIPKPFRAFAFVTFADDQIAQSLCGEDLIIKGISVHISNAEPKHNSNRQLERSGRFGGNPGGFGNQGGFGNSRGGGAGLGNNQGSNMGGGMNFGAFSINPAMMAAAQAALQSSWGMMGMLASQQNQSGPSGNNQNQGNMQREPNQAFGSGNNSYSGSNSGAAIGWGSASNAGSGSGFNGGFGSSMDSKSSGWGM

On to “GGGAGAGCAAAGUGAUGAGUAAUACUGGCUGGAGCCCCAAAGAGGCACGUGUGUGUGUUUGUGUGUGUGUGUAUAUGCUUGUCAGUGCAUGCACGUGUAUGUCUGGGAGUACAAAUGGGUGCGACUGGUUGUAGGGAACUAGCUAUGUGCCUUCUAUUAGGCCAUGACAGUCAAACUGAUAAGAUCUGAUUGC [scaRNA28]”, for which the binding result is recorded as “binds”.
